Measured values as given in publication PMC3577987 (Journal of molecular biology, 2012).

Experiments:
[1] = biological target: the molecule itself; assay: crystal structure
[2] = biological target: the molecule itself; assay: pulsed dipolar ESR
[3] = biological target: the molecule itself; assay: SAXS

B1: Aer2 173–289 K176A E275A (domain or fragment)
chain: ARIASALDNVSANVMIADNDLNIIYMNRTVSEMLGRAEADIRKQLPNFDAGRLMGANIDVFHKNPAHQRHLLANLTGVHKAELNLGGRRFSLDVVPVFNDANARLGSAVQWTDRTEE
[1]
  binding result: binds

B2: Aer2 1–402 S183C, MTSSL spin-labeled (domain or fragment)
chain: MGLFNAHAVAQQRADRIATLLQSFADGQLDTAVGEAPAPGYERLYDSLRALQRQLREQRAELQQVESLEAGLAEMSRQHEAGWIDQTIPAERLEGRAARIAKGVNELVAAHIAVKMKVVSVVTAYGQGNFEPLMDRLPGKKAQITEAIDGVRERLRGAAEATSAQLATAAYNARIKSALDNVCANVMIADNDLNIIYMNRTVSEMLGRAEADIRKQLPNFDAGRLMGANIDVFHKNPAHQRHLLANLTGVHKAELNLGGRRFSLDVVPVFNDANERLGSAVQWTDRTEEHRAEQEVSQLVQAAAAGDFSKRVEEAGKEGFFLRLAKDLNSLVDTADRGLRDVSRMLGALAQGDLTQRIEADYQGTFGQLKDFSNDTAQSLSRMLGQIREAADTINTAASEIA
modifications: MTSSL nitroxide spin label on C183
[2]
  binding result: binds

B3: Aer2 1–317 (domain or fragment)
chain: MGLFNAHAVAQQRADRIATLLQSFADGQLDTAVGEAPAPGYERLYDSLRALQRQLREQRAELQQVESLEAGLAEMSRQHEAGWIDQTIPAERLEGRAARIAKGVNELVAAHIAVKMKVVSVVTAYGQGNFEPLMDRLPGKKAQITEAIDGVRERLRGAAEATSAQLATAAYNARIKSALDNVSANVMIADNDLNIIYMNRTVSEMLGRAEADIRKQLPNFDAGRLMGANIDVFHKNPAHQRHLLANLTGVHKAELNLGGRRFSLDVVPVFNDANERLGSAVQWTDRTEEHRAEQEVSQLVQAAAAGDFSKRVEEAGK
[3]
  binding result: binds

B4: Aer2 1–402 (domain or fragment)
chain: MGLFNAHAVAQQRADRIATLLQSFADGQLDTAVGEAPAPGYERLYDSLRALQRQLREQRAELQQVESLEAGLAEMSRQHEAGWIDQTIPAERLEGRAARIAKGVNELVAAHIAVKMKVVSVVTAYGQGNFEPLMDRLPGKKAQITEAIDGVRERLRGAAEATSAQLATAAYNARIKSALDNVSANVMIADNDLNIIYMNRTVSEMLGRAEADIRKQLPNFDAGRLMGANIDVFHKNPAHQRHLLANLTGVHKAELNLGGRRFSLDVVPVFNDANERLGSAVQWTDRTEEHRAEQEVSQLVQAAAAGDFSKRVEEAGKEGFFLRLAKDLNSLVDTADRGLRDVSRMLGALAQGDLTQRIEADYQGTFGQLKDFSNDTAQSLSRMLGQIREAADTINTAASEIA
[3]
  binding result: binds
